For 2 substances, stoichiometry N results are on record in publication PMC11218372.

In test [1] the target is CA7-PabCA, carbonic anhydrase from Pyrococcus abyssi (Py. abyssi). As to the kind of experiment: SDS-PAGE; SEC fractions of the purified CA (Cobalt His-Pur, Superdex 75), NuPAGE 4-12% Bis-Tris gel.
Test [2] has the same target. As to the kind of experiment: SDS-PAGE; cell lysates of E. coli overexpressing the CA, NuPAGE 4-12% Bis-Tris gel in MES buffer; CA7 expressed without additional Zn, CA8 with 0.5 mM ZnSO4.
The target of test [3] is CA8-PhoCA, carbonic anhydrase from Pyrococcus horikoshii (Py. horikoshii). Description: SDS-PAGE; SEC fractions of the purified CA (Cobalt His-Pur, Superdex 75), NuPAGE 4-12% Bis-Tris gel.
Test [4] has the same target. Description: SDS-PAGE; cell lysates of E. coli overexpressing the CA, NuPAGE 4-12% Bis-Tris gel in MES buffer; CA7 expressed without additional Zn, CA8 with 0.5 mM ZnSO4.

With “CA7-PabCA, carbonic anhydrase from Pyrococcus abyssi (enzyme)”, the stoichiometry N in test [1] and in test [2] was 3 each time.

With “CA8-PhoCA, carbonic anhydrase from Pyrococcus horikoshii (enzyme)”, the stoichiometry N in test [3] and in test [4] was 3 throughout.
